Reference: patent US20150079071A1, “NON-CATALYTIC DOMAIN TARGETS IN MATRIX METALLOPROTEASE PROTEINS FOR CANCER THERAPIES” (THE REGENTS OF THE UNIVERSITY OF CALIFORNIA, priority 2012, published 2015)

Legend:
[1] = molecular target: myristoylated alanine-rich C-kinase substrate (MARCKS), endogenous, in conditioned medium of SCp2 cells (mouse) (UniProt P26645); assay: anti-Flag IP from conditioned medium, LC-MS/MS spectra counts; selection criterion that MARCKS passed
[2] = molecular target: annexin A2 (ANXA2), endogenous, in conditioned medium of SCp2 cells (mouse) (UniProt P07356); assay: anti-Flag IP from conditioned medium, LC-MS/MS spectra counts; selection criterion that ANXA2 passed
Sequence of annexin A2 (ANXA2), endogenous, in conditioned medium of SCp2 cells (mouse) (P07356 2-339 limits assumed): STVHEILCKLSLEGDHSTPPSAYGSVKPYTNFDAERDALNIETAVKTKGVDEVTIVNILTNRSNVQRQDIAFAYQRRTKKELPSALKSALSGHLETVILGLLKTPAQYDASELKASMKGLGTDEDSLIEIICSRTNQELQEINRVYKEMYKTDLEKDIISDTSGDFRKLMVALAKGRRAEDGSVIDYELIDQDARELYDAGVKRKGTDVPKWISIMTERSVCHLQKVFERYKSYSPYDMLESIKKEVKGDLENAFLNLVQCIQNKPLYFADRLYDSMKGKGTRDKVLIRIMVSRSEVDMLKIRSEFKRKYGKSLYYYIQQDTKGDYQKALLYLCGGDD

Sequence of myristoylated alanine-rich C-kinase substrate (MARCKS), endogenous, in conditioned medium of SCp2 cells (mouse) (P26645 2-309 limits assumed): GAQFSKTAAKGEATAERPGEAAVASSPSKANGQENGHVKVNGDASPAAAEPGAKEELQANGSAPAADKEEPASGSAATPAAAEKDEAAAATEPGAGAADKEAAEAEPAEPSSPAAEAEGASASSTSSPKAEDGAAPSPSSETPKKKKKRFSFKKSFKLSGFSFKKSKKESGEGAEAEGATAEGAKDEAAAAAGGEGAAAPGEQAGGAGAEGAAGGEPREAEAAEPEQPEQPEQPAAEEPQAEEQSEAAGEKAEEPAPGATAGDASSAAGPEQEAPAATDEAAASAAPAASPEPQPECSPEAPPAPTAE

fold change of abundance (spectra counts) in FL compared with dPEX [1]: > 1.5 fold
fold change of abundance (spectra counts) in FL compared with dPEX [2]: > 1.5 fold
Substance: Flag-tagged full-length human MMP3 (FL) (from UniProt P08254 18-477) (enzyme)
